For this assay, the target named is T1, E. coli methionine aminopeptidase (MetAP), type-1a, N-terminal poly-His-tagged (E. coli, UniProt P0AE18 1-264).
T1 sequence (looked up): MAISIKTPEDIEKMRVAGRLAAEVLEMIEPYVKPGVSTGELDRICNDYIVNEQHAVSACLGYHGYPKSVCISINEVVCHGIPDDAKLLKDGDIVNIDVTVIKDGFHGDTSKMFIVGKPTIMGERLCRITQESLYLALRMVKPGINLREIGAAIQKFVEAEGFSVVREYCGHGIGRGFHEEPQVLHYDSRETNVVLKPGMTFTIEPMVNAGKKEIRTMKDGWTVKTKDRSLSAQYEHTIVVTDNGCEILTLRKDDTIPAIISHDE
As to the kind of experiment: cryo-EM structure.

B1: E. coli peptide deformylase (PDF), N-terminal His6-tagged (enzyme, UniProt P0A6K3 1-169, looked up)
chain: MSVLQVLHIPDERLRKVAKPVEEVNAEIQRIVDDMFETMYAEEGIGLAATQVDIHQRIIVIDVSENRDERLVLINPELLEKSGETGIEEGCLSIPEQRALVPRAEKVKIRALDRDGKPFELEADGLLAICIQHEMDHLVGKLFMDYLSPLKQQRIRQKVEKLDRLKARA
On to B1, for which the binding result is recorded as “binds”.

Source of the values: article doi:10.1101/312850 (bioRxiv, 2018).
